{
  "source": "the nanobody polyreactivity screen of Harvey et al. (2022)",
  "data": [
    {"test": "yeast display, Sf9 membrane polyspecificity reagent, FACS + sequencing; frameworks hold sequencing errors", "how_it_was_run": "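Nanobodies from a synthetic yeast display library (Saccharomyces cerevisiae BJ5465), induced 36–48 hours with galactose, were stained 1 hour at 4 °C with 10% biotinylated, detergent-solubilized Sf9 membrane reagent, enriched on streptavidin microbeads, then FACS-sorted. Anti-HA (expression) and streptavidin (reagent binding) fluorescence set low and high (top ~1%) gates. Polyreactivity labels come from the gate of origin. Genes were colony-PCR amplified, MiSeq 2 × 250 sequenced and filtered by CDR length.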", "values": [
      {"sequence": "QVQLVESGGGLVQAGGSLRLSCAASGSIFEVNAMGWYRQAPGKERELVAAISCSGGSTYYADSVKGRFTISRDNAKNTVYLQMNSLKPEDTAVYYCAARPAGYSGRKLYYWGQGTQVTVSS", "polyreactivity (PSR sort gate)": "low polyreactivity"},
      {"sequence": "QVQLVESGGGLVQAGGSLRLSCAASGSIFEVNAMGWYRQAPGKERELVAAISFSGDSTYYADSVKGRFTISRDNAKNTVYLQMNSLKPEDTAVYYCAAEQYVAWIDYLYDYWGQGTQVTVSS", "polyreactivity (PSR sort gate)": "high polyreactivity"},
      {"sequence": "QVQLVESGGGLVQAGGSLRLSCAASGSIFEVYAMGWYRQAPGKERELVAAINYTGGSTYYADSVKGRFTISRDNAKNTVYLQMNSLKPEDTAVYYCARDTSGIGTRYDYWGQGTQVTVSS", "polyreactivity (PSR sort gate)": "low polyreactivity"},
      {"sequence": "QVQLVESGGGLVQAGGSLRLSCAASGSIFEWYAMGWYRQAPGKERELVADISSLGSTYYADSVKGRFTISRDNAKNTVYLQMNSLKPEDTAVYYCNTSYIIWYDSWGQGTQVTVSS", "polyreactivity (PSR sort gate)": "low polyreactivity"},
      {"sequence": "QVQLVESGGGLVQAGGSLRLSCAASGSIFEYNAMGWYRPAPGKERELVAAISWSSGTTYYADSVKGRFTISLDNAKNSVYLQMNSLKPEDTAVYYCNAGRYGKDSDYWGQGTQVTVSS", "polyreactivity (PSR sort gate)": "low polyreactivity"},
      {"sequence": "QVQLVESGGGLVQAGGSLRLSCAASGSIFEYTGMGWYRQAPGKERELVAAITTTGTTDYADSVKGRFTISRDNAKNTVYLQMNSLKPEDTAVYYCAADYTYYYKVEYDYWGQGTQVTVSS", "polyreactivity (PSR sort gate)": "low polyreactivity"},
      {"sequence": "QVQLVESGGGLVQAGGSLRLSCAASGSIFFAYDMGWYRQAPGKERELVAAISNIDGSTYYADSVKGRFTISRDNAKNTVYLQMNSVKPEDTAVYYCATRVYYLYDYWGQGTQVTVSS", "polyreactivity (PSR sort gate)": "low polyreactivity"},
      {"sequence": "QVQLVESGGGLVQAGGSLRLSCAASGSIFFDNAMGWYRQAPGKERELVAAIDSSGGSTYYADSVKGRFTISRDNAKNTVYLQMNSLKPEDTAVYYCAREQYVPSPYSFFDEFEYWGQGTQVTVSS", "polyreactivity (PSR sort gate)": "low polyreactivity"},
      {"sequence": "QVQLVESGGGLVQAGGSLRLSCAASGSIFFDNAMGWYRQAPGKERELVATINSGGNTHYADSVKGRFTISRDNAKNTVYLQMNSLKPEDTAVYSCAADFRSDLVDGYNYWGQGTQVTVSS", "polyreactivity (PSR sort gate)": "low polyreactivity"},
      {"sequence": "QVQLVESGGGLVQAGGSLRLSCAASGSIFFDNAMGWYRQAPGKERELVATINSGGNTHYADSVKGRFTISRDNAKNTVYLQMNSLKPEDTAVYYCAADFPSDLVDGYNYWGQGTQVTVSS", "polyreactivity (PSR sort gate)": "low polyreactivity"},
      {"sequence": "QVQLVESGGGLVQAGGSLRLSCAASGSIFFDYALGWYRQAPGKERELVARITSSDSTNYADSVKGRFTISRDNAKNTVYLQMNSLKPEDTAVYYCNKDSTGDGYDYWGQGTQVTVSS", "polyreactivity (PSR sort gate)": "low polyreactivity"},
      {"sequence": "QVQLVESGGGLVQAGGSLRLSCAASGSIFFFNAMGWYRQAPGKERELVAAISESGTSTYYADSVKGRFTISRDNAKNTVYLQMNSLKPEDAAVYYCNVVFRYAYGVYYTPEFYYWGQGTQVTVSS", "polyreactivity (PSR sort gate)": "low polyreactivity"},
      {"sequence": "QVQLVESGGGLVQAGGSLRLSCAASGSIFFGNAMGLYRQAPGKERELVAAISTTGGSTYYADSVKGRFTISRDNAKNTVYLQMNSLKPEDTAVYYCNADRATWWEQWWYDYWGQGTQVTVSS", "polyreactivity (PSR sort gate)": "low polyreactivity"},
      {"sequence": "QVQLVESGGGLVQAGGSLRLSCAASGSIFFGYAMGWYRQAPGKEREFVAAITASGVRTYYADSVKGRFTISRDNAKNTVYLQMNSLKPEDTAVYYCAARIGTGVLPARGAKSHMDYWGQGTQVPVSS", "polyreactivity (PSR sort gate)": "low polyreactivity"},
      {"sequence": "QVQLVESGGGLVQAGGSLRLSCAASGSIFFLNAMGWYRQAPGKERELVAAITNVGSTYYADSVKGRFTISRDNAKNTVYLQMNSLKPEDTAVYYCNADPGEVLVGYDYWGQGTEVTVSS", "polyreactivity (PSR sort gate)": "low polyreactivity"},
      {"sequence": "QVQLVESGGGLVQAGGSLRLSCAASGSIFFLYAMGWYRQAPGKERELVAAISRDGRTNYADSVKGRFTISRDNAKNTVYLQMNSLKPEDTAVYYCAKDGNHPGAVGYGYWGQGTQVTVSS", "polyreactivity (PSR sort gate)": "low polyreactivity"},
      {"sequence": "QVQLVESGGGLVQAGGSLRLSCAASGSIFFLYAMGWYRQAPGKERELVAGINLSGGSTYYADSVKGRFTISRDNAKNTVYLQMNSLKPEDTAVYYCNAYLPSPYSSSYIFDYDSWGQGTQVTVSS", "polyreactivity (PSR sort gate)": "low polyreactivity"},
      {"sequence": "QVQLVESGGGLVQAGGSLRLSCAASGSIFFLYTMGWYRQARGKERELVAAITRNGGSTYYADSVKGRFTISRDNAKNTVYLQMNSLKPEDTAVYYCNALRWYSYNYWGQGTQVTVSS", "polyreactivity (PSR sort gate)": "high polyreactivity"},
      {"sequence": "QVQLVESGGGLVQAGGSLRLSCAASGSIFFNYAMGWYRQAPGKERELVAAISSNGGRTYYADSVKGRFTISRDNAKNTVYLQMNSLKPEDTAVYYCAARVYDYPRFGYWGQGTQVTVSS", "polyreactivity (PSR sort gate)": "high polyreactivity"},
      {"sequence": "QVQLVESGGGLVQAGGSLRLSCAASGSIFFPYAMGWYRQAPGKERELVAAITRSGGRTYYADSVKGRFTISRDNAKNTVYLQMNSLKPEDTAVYYCAAGPWYNFYDSRPWFSYDYWGQGTQVTVSS", "polyreactivity (PSR sort gate)": "low polyreactivity"},
      {"sequence": "QVQLVESGGGLVQAGGSLRLSCAASGSIFFPYAMGWYRQAPGKERELVAASTRSGGRTYYADSVKGRFTISRDNAKNTVYLQMNSLKPEDTAVYYCAAGPWYKFYDWRPWFSYDYWGQGTQVTVSS", "polyreactivity (PSR sort gate)": "low polyreactivity"},
      {"sequence": "QVQLVESGGGLVQAGGSLRLSCAASGSIFFRYAMGWYRPAPGKERELVAAISSSGGSTYYADSVKGRFTISRDNAKNTVYLQMNSLKPEDTAVYYCAARYYSKYYYSPFDYWGQGTQVTVSS", "polyreactivity (PSR sort gate)": "high polyreactivity"},
      {"sequence": "QVQLVESGGGLVQAGGSLRLSCAASGSIFFRYTMGWYRQAPGKERELVAAITGDGGSTYADSVKGRFTISRDNAKNTVYLQMNSLNPEDTAVYYCAALSTTGIWGTVSTYYYWGQGTQVTVSS", "polyreactivity (PSR sort gate)": "low polyreactivity"},
      {"sequence": "QVQLVESGGGLVQAGGSLRLSCAASGSIFFSNAMGRYRQAPGKERELVAGIRSGGITNYADSVKGRFTISRDNAKNTVYLQMNSLKPEDTAVYYCNADLAPSTPYFYYFPVRRDYWGQGTQVTVSS", "polyreactivity (PSR sort gate)": "low polyreactivity"},
      {"sequence": "QVQLVESGGGLVQAGGSLRLSCAASGSIFFSNTMGWYRQAPGKERELVARITWSGTSTNYADSVKGRFTISRDNAKNTVYLQMNSLKPEDTAVYYCNAGFYTSAGYDYWGQGTQVTVSS", "polyreactivity (PSR sort gate)": "high polyreactivity"},
      {"sequence": "QVQLVESGGGLVQAGGSLRLSCAASGSIFFSNVMGWSRPAPGKERELVAAITRGGGTNYADSVKGRFTISRDNAKNTVYLQMNSLKPEDTAVYYCNRDPQKYRWIPRYDYWGQGTQVTVSS", "polyreactivity (PSR sort gate)": "low polyreactivity"},
      {"sequence": "QVQLVESGGGLVQAGGSLRLSCAASGSIFFSYAMGWYRQAPGKERELVATITTSGGRTRYADSVKGRFTISRDNAKNTVYLQMNSLKPEETAVYYCAAAPWDAPWSGYEYWGQGTQVTVSS", "polyreactivity (PSR sort gate)": "high polyreactivity"},
      {"sequence": "QVQLVESGGGLVQAGGSLRLSCAASGSIFFVYAMGWYRQAPGKERELVAGISGRDGSTYYADSVKGRFTISRDNAKNTVYLQMNSLKPEDTAVYYSARVYWGQGTQVTVSS", "polyreactivity (PSR sort gate)": "low polyreactivity"},
      {"sequence": "QVQLVESGGGLVQAGGSLRLSCAASGSIFFWYTMGWYRQAPGKERELVATITGSGSSTTYADSVKGRFTISRDYAKNTVYLQMNSLKPEDTAVYYCAAADIIDHSFPYDYWGQGTQVTVSS", "polyreactivity (PSR sort gate)": "low polyreactivity"},
      {"sequence": "QVQLVESGGGLVQAGGSLRLSCAASGSIFFYNTMGWYRQAPGKERELVAAISASGGRTYYADSVKGRFTISRDNAKNTVYLQMISLKPEDTAVYYCAVRVPYRGYTRYDYWGQGTQVTVSS", "polyreactivity (PSR sort gate)": "high polyreactivity"},
      {"sequence": "QVQLVESGGGLVQAGGSLRLSCAASGSIFFYNTMGWYRQAPRKERELVAAISSSGRTYYADSVKGRFTISRDNAKNTVYLQMNSLKPEDTAVYYCAKRTWRGYDYWGQGTQVTVSS", "polyreactivity (PSR sort gate)": "high polyreactivity"},
      {"sequence": "QVQLVESGGGLVQAGGSLRLSCAASGSIFFYYAMGWYRPAPGKERELVAAITSGGTTNYADSVNGRFTISRDNAKNTVYLQMNSLKPEDTAVYYCAVAGPRYAFFEYDYWGQGTQVTVSS", "polyreactivity (PSR sort gate)": "low polyreactivity"},
      {"sequence": "QVQLVESGGGLVQAGGSLRLSCAASGSIFFYYAMGWYRQAPGKERELVAAINSDGSTNYADSVKGRFTISRDNAKNTVYLQMNSVKPEDTAVYYCAADYVYYYHEYDYWGQGTQVTVSS", "polyreactivity (PSR sort gate)": "low polyreactivity"},
      {"sequence": "QVQLVESGGGLVQAGGSLRLSCAASGSIFFYYAMGWYRQAPGKERELVAAINWTGGRTYYADSVKGRFTISRDNAKNTVYLQMNSLKPEDTAVYYWAAEYYGQHDTYEYWGQGTQVTVSS", "polyreactivity (PSR sort gate)": "high polyreactivity"},
      {"sequence": "QVQLVESGGGLVQAGGSLRLSCAASGSIFFYYAMGWYRQAPGKERELVAAITGSGGSTYYADSVKGRFTISRDNAKNTVYLQMNSLKPEDTAVYSCAADRTVRAVYYGYGYWGQGTQVTVSS", "polyreactivity (PSR sort gate)": "low polyreactivity"},
      {"sequence": "QVQLVESGGGLVQAGGSLRLSCAASGSIFGANTMGWYRQAPGKERELVAAISSGGNTYYADSVKGRFTISRDNAKNTVYLQMNSLKPEDTAVYYCNAQTRYRYQYGYLGGTGYNYWGQGTQVTVSS", "polyreactivity (PSR sort gate)": "low polyreactivity"},
      {"sequence": "QVQLVESGGGLVQAGGSLRLSCAASGSIFGANTMGWYRQAPGKERELVAGITSGARTYYADSVKGRFTISRDNAKNTVYLQMNSLKPEDTAVYYCAAQYAWRRYGYWGQGTQVTVSS", "polyreactivity (PSR sort gate)": "high polyreactivity"},
      {"sequence": "QVQLVESGGGLVQAGGSLRLSCAASGSIFGAYAMGWYRQAPGKERELVAAISSSVDRTYYADSVKGRFTISRDNAKNTVYLQMNSLKPEDTAVYYCAARWGTRDRTKYYYWGQGTQVTVSS", "polyreactivity (PSR sort gate)": "high polyreactivity"},
      {"sequence": "QVQLVESGGGLVQAGGSLRLSCAASGSIFGDNAMGRYRQAPGKERELVAVISSSGSTYYADSVKGRFTISRDTAMNTVYLQMNSLKAEDTAVYYCNAYEFDWYEEYYYWGQGTQVTVSS", "polyreactivity (PSR sort gate)": "low polyreactivity"},
      {"sequence": "QVQLVESGGGLVQAGGSLRLSCAASGSIFGDNAMGWYRQAPGKERELVAAISGSTGSTNYADSVKGRFTISRDNAKNTVYLQMNSLKPEDTAVYYCNVGGLEYFVFKGVSVPDDYWGQGTQVTVSS", "polyreactivity (PSR sort gate)": "low polyreactivity"},
      {"sequence": "QVQLVESGGGLVQAGGSLRLSCAASGSIFGDNAMGWYRQAPGKERELVASITWSGGSTFYADSVKGRFTISRDNAQITVYLQMNSLKPEDTAVYYCAADTAEYLYDMDYWGQGTQVTVSS", "polyreactivity (PSR sort gate)": "low polyreactivity"},
      {"sequence": "QVQLVESGGGLVQAGGSLRLSCAASGSIFGDYAMGWSSQAPGKEGELVAAISRGDGTYYADSVKGRFTISRDNAKNTVYLQMNSLKPEDTAVYYCNAGGRYHAPSGDFWGQGSQVTVSS", "polyreactivity (PSR sort gate)": "low polyreactivity"},
      {"sequence": "QVQLVESGGGLVQAGGSLRLSCAASGSIFGDYAMGWYRQAPGKEREFVAGITRRGGRTYYADSVKGRFTISRDNAKNTVYLQMHSLKPEDTAVYYCNAVYSSSLRSKYDYWGQGTQVTVSS", "polyreactivity (PSR sort gate)": "high polyreactivity"}
    ]}
  ]
}
